# Laboratory results as given in IntAct's records for PubMed 20185822.
# B1: Autoimmune regulator (Homo sapiens), O43918 (parent)
# chain: MATDAALRRLLRLHRTEIAVAVDSAFPLLHALADHDVVPEDKFQETLHLKEKEGCPQAFHALLSWLLTQDSTAILDFWRVLFKDYNLERYGRLQPILDSFPKDVDLSQPRKGRKPPAVPKALVPPPRLPTKRKASEEARAAAPAALTPRGTASPGSQLKAKPPKKPESSAEQQRLPLGNGIQTMSASVQRAVAMSSGDVPGARGAVEGILIQQVFESGGSKKCIQVGGEFYTPSKFEDSGSGKNKARSSSGPKPLVRAKGAQGAAPGGGEARLGQQGSVPAPLALPSDPQLHQKNEDECAVCRDGGELICCDGCPRAFHLACLSPPLREIPSGTWRCSSCLQATVQEVQPRAEEPRPQEPPVETPLPPGLRSAGEEVRGPPGEPLAGMDTTLVYKHLPAPPSAAPLPGLDSSALHPLLCVGPEGQQNLAPGARCGVCGDGTDVLRCTHCAAAFHWRCHFPAGTSRPGTGLRCRSCSGDVTPAPVEGVLAPSPARLAPGPAKDDTASHEPALHRDDLESLLSEHTFDGILQWAIQSMARPAAPFPS
# Variants of: B1
# Conditions: with daxx_human DAXX
row,effect of a mutation on the interaction,Variant
1,decreasing interaction,W78R
